Target: the molecule itself
Experiment: SEC

B1: methanethiol oxidase (MTO) of Hyphomicrobium sp. VS (enzyme)
chain: DETCNSPFTTALITGQEQYLHVWTLGMPGVGDESDKLVTISVDPKSDKYGKVINTLSVGGRGEAHHTGFTDDRRYLWAGRLDDNKIFIFDLIDPANPKLIKTITDFADRTGYVGPHTFYALPGRMLIQALSNTKTHDGQTGLAVYSNAGELVSLHPMPVTDGGDGYGYDIGINPAKNVLLTSSFTGWNNYMMDLGKMVKDPEAMKRFGNTMAIWDLKSMKAEKILNVPGAPLEIRWSLKPEHNWAYTATALTSKLWLIKQDDKGEWIAKETGTIGDPSKIPLPVDISITADAKGLWVNTFLDGTTRFYDISEPEHPKEVFSKKMGNQVNMVSQSYDGKRVYFTTSLIANWDKKGAENDQWLKAYDWDGKELVEKFTVDFNELKLGRAHHMKFSSKTNAAELGTNQSFPTRQ
stoichiometry N: 4
